B1: ANKRD44 (parent)
chain: FHCIETLVTTGANVNETDDWGRTA
B2: RAB11B (parent)
chain: AVPTDEARAFAEKNNLSFIETSAL

Variants of: B1
Test: protein stability index of a GFP-peptide fusion (GPS, HEK-293T) (PSI 1-6); higher = more stable
Details: c terminus: a fixed tail appended
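Note: lentivirally expressed fusions sorted by FACS into six bins by GFP to DsRed ratio, PSI derived from sequencing read proportions per bin multiplied by bin number.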

Protein stability index of substitutions, site by site:
W20: T 3.27; P 2.61; S 3; H 2.94; N 3.23; E 3.19; F 2.66; K 3.03; V 2.77; G 2.52; L 3.26; Q 2.66; C 2.43; D 3.2; M 2.47; R 2.57; A 2.99; Y 2.51; I 2.4
D18: E 2.09; M 1.64; C 2.14; K 1.65; Y 2.46; N 2.26; S 2.18; F 2.21; R 2.17; Q 1.69; I 1.95; H 1.54; P 1.71; V 2.43; G 1.79; W 2.07; T 1.85; L 2.81; A 2.07
T17: M 1.76; K 2.02; R 1.71; A 1.92; W 2.04; H 1.83; D 2.29; F 2; G 1.86; I 2.24; N 1.86; L 1.76; C 2.14; S 2.61; Q 2.27; Y 1.9; V 2; E 2.84; P 2.6
A12: K 2.07; E 2.31; Y 1.88; Q 2.09; L 2.45; V 1.59; G 1.52; M 2.14; R 2.33; S 2.73; N 2.07; I 1.7; F 2.61; H 2.1; W 3.07; D 1.87; P 1.81; T 2.82; C 1.1
V14: H 1.94; A 2.2; W 1.54; N 3; S 2.41; M 2.07; P 2.71; E 3.04; D 2.26; F 2.14; Y 1.77; K 2.31; T 2.93; R 2.61; G 1.86; C 2.19; I 1.82; L 2.08; Q 2.11
T9: I 2.67; C 1.78; F 1.25; L 1.77; N 2.56; A 2.01; G 2.7; E 3.12; S 2.23; K 2.83; D 3.26; M 1.45; Y 1.54; Q 2.63; V 1.6; R 1.86; H 2.18; P 2.06
E16: Q 1.45; M 1.56; W 2.43; L 1.8; F 1.86; Y 2.32; V 1.64; D 2.17; K 2.5; H 2.32; A 1.98; G 1.79; I 1.52; S 1.78; R 1.76; C 2.16; N 1.97; T 1.53; P 2
T23: W 1.56; G 2.42; K 2.26; D 2.71; N 2.17; C 1.87; V 2.14; A 2.27; Y 1.83; I 1.86; H 2.42; P 2.13; E 2.71; S 2.31; F 2.06; L 1.91; Q 2.24; M 1.38; R 2.05
N15: P 2.34; I 1.54; V 2; L 2.21; R 2.01; F 1.96; D 2.29; T 3.27; E 2.13; W 2.14; Q 2.18; S 1.64; H 2.17; A 1.76; G 1.85; Y 1.96; M 1.69; C 1.9; K 2.44
T10: C 1.96; V 2.17; N 2.66; K 2.24; L 1.65; A 1.72; E 2.37; M 1.71; W 2.68; I 1.7; D 3.46; Y 2.14; G 1.92; Q 2.63; H 2.08; S 2.08; R 2.34; P 2.36
G11: R 2.6; F 1.47; Q 1.74; E 2.94; H 1.53; P 2.23; C 2.09; V 2.09; T 2.29; A 1.79; N 2; Y 2.39; W 2.99; D 2.88; K 2.29; S 1.68; M 1.5; I 2.62; L 2.44
A24: Y 1.78; R 2.37; K 2.46; S 2.06; M 2.39; H 2.39; F 2.24; C 1.98; E 2.27; T 2.21; Q 2.06; N 2.03; G 2.05; I 1.88; L 1.91; W 1.16; V 2.01; D 2.74; P 2.63
N13: C 1.59; Y 1.68; H 2.13; V 2.61; F 3.16; A 2.56; G 2.21; Q 2.3; S 2.39; L 2.11; T 2.18; D 2.51; M 1.5; W 1.77; R 2.1; K 2.36; P 2.41; I 2.31; E 1.69
R22: C 1.76; G 1.88; S 2.71; H 1.98; E 2.91; K 2.36; N 2.35; Q 2.7; M 2.27; A 2.64; W 1.49; P 3.06; Y 1.95; D 3.09; F 1.65; T 2.46; V 2.29; L 2.5; I 1.9
D19: A 1.56; E 2.49; R 1.66; W 2.44; S 1.72; L 2.09; Y 2.43; Q 2.06; G 1.79; V 2.18; P 2.26; F 2.58; I 3.48; K 2.05; T 1.88; N 1.75; M 2; H 1.73; C 2.15
G21: I 2.24; Y 1.92; F 1.87; D 2.71; N 1.68; Q 2.21; M 2.04; S 1.89; K 2.42; C 1.76; E 2.33; A 2.12; V 2.27; R 2.5; H 2.32; L 2.12; T 2.25; P 1.98; W 2.48

Variants of: B2
Test: as above
Details: c terminus: a fixed tail appended

Protein stability index: each site, then its substitutions
K13: W 1.94; P 2.12
A9: W 1.78; I 2.45
T4: Q 3.05; C 2.78; F 2
A1: I 2.07; N 2.88
A7: L 2.16
T21: E 4.67; L 3.08
I19: N 4.1
A11: T 2.71; I 2.66
S22: R 3.13; F 2.52; N 3.69
A23: T 2.77; R 2.47
F10: D 4.06
L24: K 4.15
E12: M 1.97; L 2.02
D5: Q 2.42; R 2.07
S17: P 4.19; L 2.77; H 3.07
V2: C 3.02; Y 2.52; P 3.2

From the supplement of paper PMC10567573
